This is an account of results in US20180141989A1 (BOARD OF REGENTS OF THE UNIVERSITY OF OKLAHOMA, published 2018).

Where no end group is shown, it is not given here.

Test [1] concerns the target T1, MBP-RAMP1 ECD-(GS)5-CLR ECD-H6 fusion protein (human, UniProt O60894 24-111; Q16602 29-144).
T1 construct: range 24-111;range 29-144; Tethered ECD fusion made in E. coli; used in the FP assay at 15 nM; also called MBP-hRAMP1.24-111-(Gly-Ser)5-hCLR.29-144-H6
Kind of test: FP competition vs FITC-AM W/W probe, purified ECD fusion. The method, then: (§1) Fluorescence polarization peptide binding assay. […] The reactions (50 μL) were incubated for 2 hours at room temperature to reach equilibrium, and the anisotropy was measured in black half-area 96-well plates using a BMG LABTECH's POLARstar® Omega plate reader (Ortenberg, Germany). The reaction buffer was 50 mM HEPES, pH 7.5, 150 mM NaCl, 0.5 mg/ml fatty acid-free BSA, 0.5 mM EDTA, 0.5 mM maltose. KI values were calculated using nonlinear regression fitting of the competition curves to the exact analytical equations of Roehrl et al. (Biochemistry (2004) 43:16056-66) using GraphPad Prism 5.0 (GraphPad Software, San Diego Calif.).
(§2) The large size difference between the MBP-RAMP ECD-CLR ECD fusion proteins (˜65 kDa) and the probe (˜2.5 kDa) ensures a significant anisotropy difference between bound and free states of the probe. […] Kd values for the probe at each of the tethered ECD fusion proteins were determined in equilibrium saturation binding experiments (data not shown), and KI values were determined for unlabeled peptides in equilibrium competition experiments (Table 1; FIGS. 2-5). The data were analyzed according to exact analytical equations using non-linear regression curve fitting in GraphPad Prism 5.0 (GraphPad Software) via user-defined equations.

The target in test [2] is T1, MBP-RAMP1 ECD-(GS)5-CLR ECD-H6 fusion …. The test can be described thus: FP (anisotropy) competition: displaces FITC-Ahx-AM(37-52)NH2[S45W,Q50W] probe (7 nM) from MBP-RAMP1 ECD-(GS)5-CLR ECD-H6 (15 nM) [D-E) panel D]. As for the experimental part:
as §1
as §1, with “Single representative experiments conducted with duplicate samples are shown.” for “Fluorescence polarization peptide binding assay.”, “reactions” for “reactions (50 μL)”

The target is the same in test [3]. Kind of test: ratio of FP KI values at the two ECD complexes. The method, then:
as §1, §2

Test [4] deals with MBP-RAMP2 ECD [L106R]-(GS)5-CLR ECD-H6 fusion protein (human) (UniProt O60895). The test can be described thus: FP competition vs FITC-AM W/W probe, purified ECD fusion.
In test [5] the target is T1, MBP-RAMP1 ECD-(GS)5-CLR ECD-H6 fusion …. Kind of test: FP (anisotropy) competition: displaces FITC-Ahx-AM(37-52)NH2[S45W,Q50W] probe (7 nM) from MBP-RAMP1 ECD-(GS)5-CLR ECD-H6 (15 nM) [D-E) panel E]. The method, then:
as §1
as §1, with “Single representative experiments conducted with duplicate samples are shown.” for “Fluorescence polarization peptide binding assay.”, “reactions” for “reactions (50 μL)”

For test [6] the target is unchanged. Kind of test: FP (anisotropy) competition: displaces FITC-Ahx-AM(37-52)NH2[S45W,Q50W] probe (7 nM) from MBP-RAMP1 ECD-(GS)5-CLR ECD-H6 (15 nM) [F-H) panel G]. As for the experimental part: as §1

T1 sequence (O60894 other isoform, or with tags, fused parts or gaps limits assumed, form in doubt): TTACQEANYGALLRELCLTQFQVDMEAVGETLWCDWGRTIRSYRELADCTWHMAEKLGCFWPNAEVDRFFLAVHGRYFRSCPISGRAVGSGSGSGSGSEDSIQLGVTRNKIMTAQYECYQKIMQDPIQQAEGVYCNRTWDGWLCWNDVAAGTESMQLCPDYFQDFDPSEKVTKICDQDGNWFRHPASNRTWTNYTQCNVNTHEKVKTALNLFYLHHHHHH
Chain of MBP-RAMP2 ECD [L106R]-(GS)5-CLR ECD-H6 fusion protein (human) (O60895 other isoform, or with tags, fused parts or gaps L106R L106R): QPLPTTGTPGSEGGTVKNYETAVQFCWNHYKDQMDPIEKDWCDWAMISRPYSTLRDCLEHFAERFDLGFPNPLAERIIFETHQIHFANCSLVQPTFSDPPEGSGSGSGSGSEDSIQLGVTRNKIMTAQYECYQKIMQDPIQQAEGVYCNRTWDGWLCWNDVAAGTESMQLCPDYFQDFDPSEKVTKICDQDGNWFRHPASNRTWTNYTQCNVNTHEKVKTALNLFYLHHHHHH

Take FVPTDTGPWGF-NH2 [CGRP(27-37)NH2 [N31D, V32T, S34P, K35W, A36G]]: in test [1], the Ki came to 6.85 nM and the pKI was determined as 8.16. Further, in test [2], the “IC50 (read off the curve)” value is approximately 30 nM.

Regarding FVPTDTGPWSF-NH2 [CGRP(27-37)NH2 [N31D, V32T, S34P, K35W, A36S]], the Ki in test [1] was less than 1 nM; in test [4] it was 2750 nM. The pKI in test [1] was more than 9; in test [4] it was 5.56. Besides, the “Receptor Selectivity (fold, over RAMP2-CLR ECD)” value in test [3] is not below 2750 fold. Besides, the “IC50 (read off the curve)” value in test [5] is approximately 10 nM.

In test [1], DKDNVAPRWLMSPWGF-NH2 [AM(37-52)NH2 [S45W, K46L, I47M, Q50W, Y52F]] displayed a Ki of 0.78 nM and a pKI of 9.11. The “IC50 (read off the curve)” value in test [6] is approximately 10 nM.

By Ki is commonly meant the equilibrium dissociation constant of an inhibitor or competing ligand from its target. Read a low Ki as higher affinity.
